Experimental data as given in PMC5391180.

Target: actin filaments of MCF-7 cells, marked by Lifeact-RFP (human (endogenous in MCF-7)) (UniProt P60709)
Test: FRET or BRET

GFP-tagged nonmuscle myosin IIC1 (alternatively spliced isoform of nonmuscle myosin heavy chain IIC) (natural protein), sequence (Q7Z406 2-1995): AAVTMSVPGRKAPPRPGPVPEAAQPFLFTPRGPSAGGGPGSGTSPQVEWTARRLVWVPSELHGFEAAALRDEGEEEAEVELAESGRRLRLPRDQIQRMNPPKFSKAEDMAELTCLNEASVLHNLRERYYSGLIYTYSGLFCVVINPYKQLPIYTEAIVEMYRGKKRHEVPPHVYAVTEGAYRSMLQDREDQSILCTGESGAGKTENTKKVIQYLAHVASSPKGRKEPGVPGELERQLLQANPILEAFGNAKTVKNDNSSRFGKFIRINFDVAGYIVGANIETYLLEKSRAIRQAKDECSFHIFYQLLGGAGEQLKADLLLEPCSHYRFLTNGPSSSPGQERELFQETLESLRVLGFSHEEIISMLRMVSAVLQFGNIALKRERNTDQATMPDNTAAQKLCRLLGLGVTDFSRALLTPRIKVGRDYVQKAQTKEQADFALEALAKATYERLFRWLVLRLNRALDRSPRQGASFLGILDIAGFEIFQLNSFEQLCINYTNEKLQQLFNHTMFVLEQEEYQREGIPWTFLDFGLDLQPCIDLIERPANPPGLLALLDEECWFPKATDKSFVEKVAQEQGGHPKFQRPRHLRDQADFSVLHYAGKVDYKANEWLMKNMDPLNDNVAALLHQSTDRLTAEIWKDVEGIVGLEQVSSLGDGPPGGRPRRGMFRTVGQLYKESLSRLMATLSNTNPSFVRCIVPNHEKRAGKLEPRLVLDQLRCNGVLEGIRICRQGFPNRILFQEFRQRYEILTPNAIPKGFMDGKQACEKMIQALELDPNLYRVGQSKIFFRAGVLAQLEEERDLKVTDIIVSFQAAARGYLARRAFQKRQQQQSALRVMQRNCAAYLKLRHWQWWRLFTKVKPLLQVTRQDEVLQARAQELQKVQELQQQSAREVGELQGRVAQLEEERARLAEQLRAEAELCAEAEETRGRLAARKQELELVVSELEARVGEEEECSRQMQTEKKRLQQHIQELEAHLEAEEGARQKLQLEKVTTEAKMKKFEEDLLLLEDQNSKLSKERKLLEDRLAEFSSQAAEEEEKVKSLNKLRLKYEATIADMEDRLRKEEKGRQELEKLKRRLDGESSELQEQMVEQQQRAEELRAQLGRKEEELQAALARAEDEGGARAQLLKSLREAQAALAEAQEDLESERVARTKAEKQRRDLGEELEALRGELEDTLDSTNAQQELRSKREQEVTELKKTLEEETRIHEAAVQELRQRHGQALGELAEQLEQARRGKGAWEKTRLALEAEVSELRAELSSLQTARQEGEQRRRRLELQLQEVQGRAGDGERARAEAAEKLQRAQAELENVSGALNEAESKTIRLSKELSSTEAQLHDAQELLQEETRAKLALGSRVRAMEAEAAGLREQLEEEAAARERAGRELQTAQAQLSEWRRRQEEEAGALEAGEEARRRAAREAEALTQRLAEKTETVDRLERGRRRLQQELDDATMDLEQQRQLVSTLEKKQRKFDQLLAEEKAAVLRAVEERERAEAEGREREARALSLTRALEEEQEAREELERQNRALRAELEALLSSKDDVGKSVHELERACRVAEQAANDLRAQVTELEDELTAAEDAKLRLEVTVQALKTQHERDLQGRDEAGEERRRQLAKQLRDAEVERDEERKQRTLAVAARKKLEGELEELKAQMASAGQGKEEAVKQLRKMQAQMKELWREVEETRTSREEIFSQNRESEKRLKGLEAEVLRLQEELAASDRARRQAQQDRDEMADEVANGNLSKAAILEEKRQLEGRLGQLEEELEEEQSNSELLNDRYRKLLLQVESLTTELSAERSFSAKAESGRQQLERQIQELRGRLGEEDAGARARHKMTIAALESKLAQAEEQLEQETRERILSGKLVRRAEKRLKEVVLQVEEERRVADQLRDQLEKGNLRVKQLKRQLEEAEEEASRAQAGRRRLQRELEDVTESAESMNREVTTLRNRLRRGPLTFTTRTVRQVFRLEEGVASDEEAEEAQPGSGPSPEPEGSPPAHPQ

Row | dwell time tau, high-FRET state, bleb cortex [s] | shorter average dwell time tau1, high-FRET state, cell cortex [s] | longer average dwell time tau2, high-FRET state, cell cortex [s] | Substance
1 | 46 | 33 | – | GFP-tagged nonmuscle myosin IIA (nonmuscle myosin heavy chain IIA, NMHC-IIA) (from UniProt P35579 1-1960) (natural protein)
2 | 93 | 35 | 110 | GFP-tagged nonmuscle myosin IIB (nonmuscle myosin heavy chain IIB, NMHC-IIB) (from UniProt P35580 1-1976) (natural protein)
3 | – | 35 | – | GFP-tagged nonmuscle myosin IIC1 (alternatively spliced isoform of nonmuscle myosin heavy chain IIC) (natural protein)
